“Also recorded” adds a separate entry of the source.
Experiments:
soluble recombinant DSG2 = target: T1, soluble recombinant DSG2 (Homo sapiens, UniProt Q14126); test: Western blot of dimeric Ad3 fiber knob mutants probed with soluble DSG2; assay type: binding; details: purified dimerized knob mutants
T1 construct: purchased Leinco Technologies, Inc. (St. Louis, Mo.)
T1 sequence (Q14126 50-609 limits assumed): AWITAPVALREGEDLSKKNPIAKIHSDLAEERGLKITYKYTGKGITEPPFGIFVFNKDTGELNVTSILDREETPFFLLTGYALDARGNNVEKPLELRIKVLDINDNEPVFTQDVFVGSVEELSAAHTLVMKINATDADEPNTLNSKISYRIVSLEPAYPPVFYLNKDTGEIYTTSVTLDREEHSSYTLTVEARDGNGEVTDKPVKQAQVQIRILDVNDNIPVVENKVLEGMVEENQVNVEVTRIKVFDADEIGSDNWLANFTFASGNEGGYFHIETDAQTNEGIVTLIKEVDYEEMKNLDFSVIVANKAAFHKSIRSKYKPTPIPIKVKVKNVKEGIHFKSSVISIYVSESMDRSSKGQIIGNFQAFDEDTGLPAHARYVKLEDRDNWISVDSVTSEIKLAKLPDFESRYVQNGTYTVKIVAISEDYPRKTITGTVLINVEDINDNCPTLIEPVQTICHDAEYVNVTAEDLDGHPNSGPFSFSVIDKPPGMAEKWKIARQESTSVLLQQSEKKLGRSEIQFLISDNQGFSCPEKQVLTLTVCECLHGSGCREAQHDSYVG
Description: FIG. 1. Residues found to be critically involved in binding to DSG2. A) Shown are the amino acid sequences of the Ad3 and Ad14p1 fiber knob. Beta sheets present in the Ad3 knob (PDB accession number 1H7Z_A) and Ad14 knob (PDB: 3F0Y_A) are indicated by lines. Black arrows indicate residues within the Ad3 fiber knob which, when mutated individually, ablate or reduce binding to DSG2. […] B) Schematic structure of dimeric Ad3 fiber knob mutants. The fiber knob domain and one shaft motif was fused through a flexible linker to a homodimerizing K-coil domain (41). The proteins are self-dimerizing and can be purified by His-Ni-NTA affinity chromatography. C-F) Analysis of binding of dimeric Ad3 fiber knob mutants to soluble DSG2. C and D) Coomassie staining. 10 μg of purified Ad3 fiber knob (unboiled) were loaded per lane. Trimeric forms of the fiber knobs are indicated by an arrow. The gel contained SDS and the loading buffer containing DTT, which caused the disassembly of dimers of trimeric fiber knobs as previously reported (41). E and F): Western blot using soluble recombinant DSG2 as a probe, followed by anti-DSG2-mAb and anti-mouse IgG-HRP. For comparison, JO-1 (0.5 μg/lane) is shown. The Western blots were scanned and signals were quantified.
Mini-PROTEAN precast gels (BIO-RAD, Hercules, Calif.) with 4-15% gradient polyacrylamide were used. A total of […] protein mixed with 2× loading buffer (10 mM Tris-HCl, pH6.8, 200 mM DTT, 4% SDS, 20% glycerol, 0.2% bromophenol blue) was loaded per lane. Samples were either boiled (B) for 5 min or loaded unboiled (UB). The following running buffer was used: 25 mM Tris, pH8.3, 0.192 M glycine, 0.1% SDS. After electrophoresis, proteins were transferred to nitrocellulose and incubated with recombinant human DSG2 protein and anti-DSG2 antibodies as described previously (42). The Western blots were scanned and quantified using the ImageJ 1.32 software (National Institutes of Health, Bethesda, Md.). JO-1 band intensity was set as 100%. […]

[1] = test system: MDA-MB-231 orthotopic TNBC tumors; test: Enhancement of nab-paclitaxel/cetuximab therapy in triple negative breast cancer model; assay type: in vivo, CB17 SCID-beige mice; details: 2 mg/kg i.v. 1 hour before cetuximab 10 mg/kg i.p. and nab-paclitaxel 5 mg/kg i.v., weekly; N=10
Experimental: FIG. 10. Combination of affinity-enhanced JO-1 versions with chemotherapy. A) Enhancement of irinotecan (I) therapy. The experimental setting was the same as in FIG. 5B. […] N=5. […] Mammary fat pad tumors were established from primary ovarian cancer ovc316 cells. Treatment was started when tumors reached a volume of 100 mm^3 Mice were injected intravenously with 2 mg/kg JO-1 or with 0.5 mg/kg JO-4, followed by an intravenous injection of PEGylated liposomal doxorubicin (PLD) (1 mg/kg) one hour later. Treatment was repeated weekly. […] A total of 4×10^6 TNBC MDA-MB-231 cells were injected into the mammary fat pad of CB17 SCID-beige mice. JO-4 (2 mg/kg) was intravenously injected 1 hour before the application of cetuximab (C) (10 mg/kg, i.p.) and nab-paclitaxel (nab-P) (5 mg/kg, i.v). Treatment was given weekly. N=10 P<0.01 at day 25 for nab-P+C vs JO-4+nab-P+C.
A549, MDA-MB-231, and ovc316 xenograft tumors were established by injection of the corresponding tumor cells into the mammary fat pad (1:1 with Matrigel) of CB17 mice. TC1-DSG2 tumors were established by subcutaneous injection of TC1-DSG2 cells into DSG2 transgenic mice. […] Tumor volumes were measured three times a week. […]

B1: D261N (protein)
chain: MKVSALKEKVSALKEKVSALKEKVSALKEKVSALKEGSGGGSGGGSGGGSNSIALKNNTLWTGPKPEANCIIEYGKQNPDSKLTLILVKNGGIVNGYVTLMGASDYVNTLFKNKNVSINVELYFDATGHILPDSSSLKTDLELKYKQTADFSARGFMPSTTAYPFVLPNAGTHNENYIFGQCYYKASNGALFPLEVTVMLNKRLPDSRTSYVMTFLWSLNAGLAPETTQATLITSPFTFSYIREDD
Question: How did the “DSG2 binding in Western blot compared to JO-1” value (soluble recombinant DSG2) turn out when B1 was run?
Answer: almost completely ablated for DSG2 binding

B2: JO-4 (protein)
chain: MKVSALKEKVSALKEKVSALKEKVSALKEKVSALKEGSGGGSGGGSGGGSNSIALKNNTLWTGPKPEANCIIEYGKQNPDSKLTLILVKNGGIVNGYVTLMGASDYVNTLFKNKNVSINVELYFDATGHILPDSSSLKTDLELKYKQTADFSARGFMPSTTAYPFVLPNAGTHNENFIFGQCYYKASDGALFPLEVTVMLNKRLPDSRTSYVMTFLWSLNAGLAPETTQATLITSPFTFSYIREDD
Question: How did the “Enhancement of nab-paclitaxel/cetuximab therapy” value [1] turn out when B2 was run?
Answer: significantly increased nab-paclitaxel/cetuximab therapy; also recorded: enhances therapy

Reference: US20150246949A1, “Desmoglein 2 (DSG2) Binding Proteins and Uses Therefor” (UNIVERSITY OF WASHINGTON THROUGH ITS CENTER FOR …, priority 2012, published 2015)
